Assay results as given in the Human Domainome abundance scans (Beltran et al. 2025).
± gives the uncertainty stated by the source.

B1: Far upstream element-binding protein 1, residues 184 to 257; numbered along this chain, Q96AE4 (parent)
chain: GNAVQEIMIPASKAGLVIGKGGETIKQLQERAGVKMVMIQDGPQNTGADKPLRITGDPYKVQQAKEMVLELIRD

Variants of: B1
Assay: abundance fitness (aPCA) (normalised: wild type 0, dead -1); higher = more abundant; growth selection in yeast, the domain comes from the species named
Details: Homo sapiens

First: GNAVQEIMIPASKAGLVIGKGGETIKQLQERAGVKDVMIQDGPQNTGADKPLRITGDPYKVQQAKEMVLELIRD [M36D]
Second: GNAVQEIMIPASKAGLVIGKGGETIKQLQERAGVKEVMIQDGPQNTGADKPLRITGDPYKVQQAKEMVLELIRD [M36E]
The abundance fitness of the first is lower: -0.709 ± 0.065 for the first, -0.582 ± 0.044 for the second.

First: GNAVQEIMIPASKAGLVIGKGGETIKQLQERAGVKGVMIQDGPQNTGADKPLRITGDPYKVQQAKEMVLELIRD [M36G]
Second: GNAVQEIMIPASKAGLVIGKGGETIKQLQERAGVKHVMIQDGPQNTGADKPLRITGDPYKVQQAKEMVLELIRD [M36H]
The abundance fitness of the first is higher: -0.67 ± 0.033 for the first, -0.81 ± 0.093 for the second.

Going from GNAVQEIMIPASKAGLVIGKGGETIKQLQERAGVKIVMIQDGPQNTGADKPLRITGDPYKVQQAKEMVLELIRD [M36I] to GNAVQEIMIPASKAGLVIGKGGETIKQLQERAGVKKVMIQDGPQNTGADKPLRITGDPYKVQQAKEMVLELIRD [M36K], the abundance fitness falls from -0.053 ± 0.047 to -0.78 ± 0.06.

GNAVQEIMIPASKAGLVIGKGGETIKQLQERAGVKNVMIQDGPQNTGADKPLRITGDPYKVQQAKEMVLELIRD [M36N] and GNAVQEIMIPASKAGLVIGKGGETIKQLQERAGVKPVMIQDGPQNTGADKPLRITGDPYKVQQAKEMVLELIRD [M36P] are within error of each other in abundance fitness: -0.712 ± 0.077 for the first, -0.789 ± 0.049 for the second.

Compared with GNAVQEIMIPASKAGLVIGKGGETIKQLQERAGVKQVMIQDGPQNTGADKPLRITGDPYKVQQAKEMVLELIRD [M36Q], GNAVQEIMIPASKAGLVIGKGGETIKQLQERAGVKRVMIQDGPQNTGADKPLRITGDPYKVQQAKEMVLELIRD [M36R] is lower in abundance fitness: -0.656 ± 0.05 for the first, -0.747 ± 0.033 for the second.

GNAVQEIMIPASKAGLVIGKGGETIKQLQERAGVKSVMIQDGPQNTGADKPLRITGDPYKVQQAKEMVLELIRD [M36S] and GNAVQEIMIPASKAGLVIGKGGETIKQLQERAGVKTVMIQDGPQNTGADKPLRITGDPYKVQQAKEMVLELIRD [M36T] are within error of each other in abundance fitness: -0.556 ± 0.035 for the first, -0.585 ± 0.042 for the second.

Compared with GNAVQEIMIPASKAGLVIGKGGETIKQLQERAGVKVVMIQDGPQNTGADKPLRITGDPYKVQQAKEMVLELIRD [M36V], GNAVQEIMIPASKAGLVIGKGGETIKQLQERAGVKWVMIQDGPQNTGADKPLRITGDPYKVQQAKEMVLELIRD [M36W] is lower in abundance fitness: -0.231 ± 0.032 for the first, -1 ± 0.052 for the second.

Compared with GNAVQEIMIPASKAGLVIGKGGETIKQLQERAGVKYVMIQDGPQNTGADKPLRITGDPYKVQQAKEMVLELIRD [M36Y], GNAVQEIMIPASKAGLVIGKGGETIKQLQERAGVKMAMIQDGPQNTGADKPLRITGDPYKVQQAKEMVLELIRD [V37A] is higher in abundance fitness: -0.786 ± 0.075 for the first, -0.054 ± 0.032 for the second.

GNAVQEIMIPASKAGLVIGKGGETIKQLQERAGVKMCMIQDGPQNTGADKPLRITGDPYKVQQAKEMVLELIRD [V37C] and GNAVQEIMIPASKAGLVIGKGGETIKQLQERAGVKMEMIQDGPQNTGADKPLRITGDPYKVQQAKEMVLELIRD [V37E] are within error of each other in abundance fitness: 0.009 ± 0.04 for the first, -0.006 ± 0.034 for the second.

GNAVQEIMIPASKAGLVIGKGGETIKQLQERAGVKMGMIQDGPQNTGADKPLRITGDPYKVQQAKEMVLELIRD [V37G] and GNAVQEIMIPASKAGLVIGKGGETIKQLQERAGVKMHMIQDGPQNTGADKPLRITGDPYKVQQAKEMVLELIRD [V37H] are within error of each other in abundance fitness: -0.172 ± 0.026 for the first, -0.178 ± 0.058 for the second.

Compared with GNAVQEIMIPASKAGLVIGKGGETIKQLQERAGVKMIMIQDGPQNTGADKPLRITGDPYKVQQAKEMVLELIRD [V37I], GNAVQEIMIPASKAGLVIGKGGETIKQLQERAGVKMKMIQDGPQNTGADKPLRITGDPYKVQQAKEMVLELIRD [V37K] is higher in abundance fitness: -0.049 ± 0.048 for the first, 0.039 ± 0.039 for the second.

GNAVQEIMIPASKAGLVIGKGGETIKQLQERAGVKMMMIQDGPQNTGADKPLRITGDPYKVQQAKEMVLELIRD [V37M] and GNAVQEIMIPASKAGLVIGKGGETIKQLQERAGVKMNMIQDGPQNTGADKPLRITGDPYKVQQAKEMVLELIRD [V37N] are within error of each other in abundance fitness: -0.07 ± 0.042 for the first, -0.065 ± 0.05 for the second.

Compared with GNAVQEIMIPASKAGLVIGKGGETIKQLQERAGVKMPMIQDGPQNTGADKPLRITGDPYKVQQAKEMVLELIRD [V37P], GNAVQEIMIPASKAGLVIGKGGETIKQLQERAGVKMQMIQDGPQNTGADKPLRITGDPYKVQQAKEMVLELIRD [V37Q] is higher in abundance fitness: -0.773 ± 0.05 for the first, -0.025 ± 0.038 for the second.

GNAVQEIMIPASKAGLVIGKGGETIKQLQERAGVKMRMIQDGPQNTGADKPLRITGDPYKVQQAKEMVLELIRD [V37R] and GNAVQEIMIPASKAGLVIGKGGETIKQLQERAGVKMSMIQDGPQNTGADKPLRITGDPYKVQQAKEMVLELIRD [V37S] are within error of each other in abundance fitness: -0.019 ± 0.026 for the first, -0.048 ± 0.031 for the second.

GNAVQEIMIPASKAGLVIGKGGETIKQLQERAGVKMTMIQDGPQNTGADKPLRITGDPYKVQQAKEMVLELIRD [V37T] and GNAVQEIMIPASKAGLVIGKGGETIKQLQERAGVKMWMIQDGPQNTGADKPLRITGDPYKVQQAKEMVLELIRD [V37W] are within error of each other in abundance fitness: -0.026 ± 0.037 for the first, -0.059 ± 0.033 for the second.

GNAVQEIMIPASKAGLVIGKGGETIKQLQERAGVKMVAIQDGPQNTGADKPLRITGDPYKVQQAKEMVLELIRD [M38A] and GNAVQEIMIPASKAGLVIGKGGETIKQLQERAGVKMVCIQDGPQNTGADKPLRITGDPYKVQQAKEMVLELIRD [M38C] are within error of each other in abundance fitness: -0.183 ± 0.032 for the first, -0.166 ± 0.044 for the second.

First: GNAVQEIMIPASKAGLVIGKGGETIKQLQERAGVKMVDIQDGPQNTGADKPLRITGDPYKVQQAKEMVLELIRD [M38D]
Second: GNAVQEIMIPASKAGLVIGKGGETIKQLQERAGVKMVEIQDGPQNTGADKPLRITGDPYKVQQAKEMVLELIRD [M38E]
The abundance fitness of the first is lower: -0.392 ± 0.055 for the first, -0.163 ± 0.039 for the second.

Going from GNAVQEIMIPASKAGLVIGKGGETIKQLQERAGVKMVFIQDGPQNTGADKPLRITGDPYKVQQAKEMVLELIRD [M38F] to GNAVQEIMIPASKAGLVIGKGGETIKQLQERAGVKMVGIQDGPQNTGADKPLRITGDPYKVQQAKEMVLELIRD [M38G], the abundance fitness falls from 0.037 ± 0.052 to -0.324 ± 0.028.

Work on GNAVQEIMIPASKAGLVIGKGGETIKQLQERAGVKMVHIQDGPQNTGADKPLRITGDPYKVQQAKEMVLELIRD [M38H] yielded an abundance fitness of -0.13 ± 0.053.
